Patent US20150290315A1

How the values were obtained:
[1] = biological target: HVEM stably expressed on B78-H1-A10 cells (UniProt Q92956); assay: cell-based or functional assay
[2] = biological target: nectin-1 stably expressed on B78-H1-C10 cells (UniProt Q15223); assay: cell-based or functional assay
UniProt Q15223, sequence (Q15223 31-517 limits assumed): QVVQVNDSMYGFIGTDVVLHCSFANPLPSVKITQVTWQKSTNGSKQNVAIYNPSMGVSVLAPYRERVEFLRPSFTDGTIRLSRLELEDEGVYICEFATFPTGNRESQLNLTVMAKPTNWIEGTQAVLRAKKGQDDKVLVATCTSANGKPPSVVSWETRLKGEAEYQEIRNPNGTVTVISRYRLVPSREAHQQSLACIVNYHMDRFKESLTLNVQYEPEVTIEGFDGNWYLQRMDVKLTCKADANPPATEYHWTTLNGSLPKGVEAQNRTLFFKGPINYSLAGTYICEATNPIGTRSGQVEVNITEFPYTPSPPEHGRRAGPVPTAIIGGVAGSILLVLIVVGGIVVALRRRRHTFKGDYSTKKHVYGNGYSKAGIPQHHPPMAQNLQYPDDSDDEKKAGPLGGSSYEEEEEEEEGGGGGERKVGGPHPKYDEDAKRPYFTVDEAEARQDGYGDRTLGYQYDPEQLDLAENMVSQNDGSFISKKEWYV

UniProt Q92956, sequence (Q92956 39-283 limits assumed): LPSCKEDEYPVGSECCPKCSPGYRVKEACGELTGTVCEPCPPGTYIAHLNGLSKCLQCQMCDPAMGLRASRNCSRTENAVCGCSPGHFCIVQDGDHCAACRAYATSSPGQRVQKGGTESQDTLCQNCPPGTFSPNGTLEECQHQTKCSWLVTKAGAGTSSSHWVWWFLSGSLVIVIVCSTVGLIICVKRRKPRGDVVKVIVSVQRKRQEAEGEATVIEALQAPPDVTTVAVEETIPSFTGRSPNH

Work on “HSV-1 strain KOS glycoprotein D with the A3C mutation, as carried by the KOS-gDA3C virus (from UniProt A1Z0Q5 26-394)” yielded an entry of virus into A10 cells (plaques counted after citrate wash) [1] of 50 % reduction and an entry of virus into C10 cells (plaques counted after citrate wash) [2] of 70 % reduction.
